Binding result and Kd data for two molecules are collected here from PMC6561087 (Nature, 2019).

Usually Kd stands for the free concentration of one partner at which half of the binding sites on the other are occupied at equilibrium, for simple one-to-one binding. Higher therefore signals lower affinity.

Assay [1] concerns the target T1, IFNγR1, wild type, recombinant soluble receptor captured on the SPR chip (UniProt P15260 18-245).
T1 sequence (looked up): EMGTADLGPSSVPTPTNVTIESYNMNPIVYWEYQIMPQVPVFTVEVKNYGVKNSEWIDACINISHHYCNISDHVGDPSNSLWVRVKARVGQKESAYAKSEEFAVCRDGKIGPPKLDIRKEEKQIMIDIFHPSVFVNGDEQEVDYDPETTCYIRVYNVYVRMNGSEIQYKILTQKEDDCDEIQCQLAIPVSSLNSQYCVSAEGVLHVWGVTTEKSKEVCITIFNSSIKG
Kind of assay: SPR. A general note: SPR reads the build-up and loss of mass on a sensor chip optically.

Assay [2] concerns the target 2:2 IFNγ–IFNγR1 intermediate complex (wild type), formed on the SPR chip (UniProt P15260). Kind of assay: SPR.

B1: IFNγ(K74A/E75Y/N83R) triple mutant (ligand)
chain: QDPYVKEAENLKKYFNAGHSDVADNGTLFLGILKNWKEESDRKIMQSQIVSFYFKLFKNFKDDQSIQKSVETIAYDMNVKFFRSNKKKRDDFEKLTNYSVTDLNVQRKAIHELIQVMAELSPAAKTGKRKRSQ
Take B1: the binding result in assay [1] is recorded as “binds”.

B2: IFNγR2, wild type, recombinant soluble receptor (receptor)
chain: SQLPAPQHPKIRLYNAEQVLSWEPVALSNSTRPVVYQVQFKYTDSKWFTADIMSIGVNCTQITATECDFTAASPSAGFPMDFNVTLRLRAELGALHSAWVTMPWFQHYRNVTVGPPENIEVTPGEGSLIIRFSSPFDIADTSTAFFCYYVHYWEKGGIQQVKGPFRSNSISLDNLKPSRVYCLQVQAQLLWNKSNIFRVGHLSNISCYETMADASTELQQ
In assay [2], B2 came in with a Kd of 5 µM.
